# Reference: IntAct's records for PubMed 9012831
# B1: Tyrosine-protein kinase BTK (Homo sapiens), Q06187 (parent)
# chain: MAAVILESIFLKRSQQKKKTSPLNFKKRLFLLTVHKLSYYEYDFERGRRGSKKGSIDVEKITCVETVVPEKNPPPERQIPRRGEESSEMEQISIIERFPYPFQVVYDEGPLYVFSPTEELRKRWIHQLKNVIRYNSDLVQKYHPCFWIDGQYLCCSQTAKNAMGCQILENRNGSLKPGSSHRKTKKPLPPTPEEDQILKKPLPPEPAAAPVSTSELKKVVALYDYMPMNANDLQLRKGDEYFILEESNLPWWRARDKNGQEGYIPSNYVTEAEDSIEMYEWYSKHMTRSQAEQLLKQEGKEGGFIVRDSSKAGKYTVSVFAKSTGDPQGVIRHYVVCSTPQSQYYLAEKHLFSTIPELINYHQHNSAGLISRLKYPVSQQNKNAPSTAGLGYGSWEIDPKDLTFLKELGTGQFGVVKYGKWRGQYDVAIKMIKEGSMSEDEFIEEAKVMMNLSHEKLVQLYGVCTKQRPIFIITEYMANGCLLNYLREMRHRFQTQQLLEMCKDVCEAMEYLESKQFLHRDLAARNCLVNDQGVVKVSDFGLSRYVLDDEYTSSVGSKFPVRWSPPEVLMYSKFSSKSDIWAFGVLMWEIYSLGKMPYERFTNSETAEHIAQGLRLYRPHLASEKVYTIMYSCWHEKADERPTFKILLSNILDVMDEES
# Variants of: B1
# Details: with gtf2i_human GTF2I
row,effect of a mutation on the interaction,Variant
1,decreasing interaction,Y551F
2,decreasing interaction,Y223F
3,decreasing interaction,R307K
